Experiment [1] deals with commercially available anti-prostasin mouse monoclonal antibody (BD Biosciences, catalog No. 612173). As to the kind of experiment: competitive immunoassay, commercial monoclonal antibody-immobilized plate; competitor POD-labeled recombinant full-length prostasin 6.4 µg/mL; unlabeled recombinant full-length prostasin 5 ng/mL.
Experiment [2] has the same target. As to the kind of experiment: competitive immunoassay, commercial monoclonal antibody-immobilized plate; competitor POD-labeled recombinant full-length prostasin 6.4 µg/mL; unlabeled recombinant full-length prostasin 100 ng/mL.
Experiment [3] has the same target. In words: competitive immunoassay, commercial monoclonal antibody-immobilized plate; competitor POD-labeled recombinant full-length prostasin 6.4 µg/mL; unlabeled recombinant full-length prostasin 10 ng/mL.
Experiment [4] has the same target. As to the kind of experiment: competitive immunoassay, commercial monoclonal antibody-immobilized plate; competitor POD-labeled recombinant full-length prostasin 6.4 µg/mL; unlabeled recombinant full-length prostasin 0 ng/mL.
For experiment [5] the target is unchanged. In words: competitive immunoassay, commercial monoclonal antibody-immobilized plate; competitor POD-labeled recombinant full-length prostasin 6.4 µg/mL; unlabeled recombinant full-length prostasin 50 ng/mL.
For experiment [6] the target is unchanged. In words: competitive immunoassay, commercial monoclonal antibody-immobilized plate; competitor POD-labeled recombinant full-length prostasin 6.4 µg/mL; unlabeled recombinant full-length prostasin 25 ng/mL.
For experiment [7], the target named is affinity-purified antibody (a). As to the kind of experiment: difference of absorbance between 0 and 50 ng/mL unlabeled partial peptide (a); antibody (a)-immobilized plate; POD-labeled peptide (a) 0.025 µg/mL.
Experiment [8] has as its target affinity-purified antibody (a). In words: difference of absorbance between 0 and 50 ng/mL unlabeled partial peptide (a); antibody (a)-immobilized plate; POD-labeled peptide (a) 0.20 µg/mL.
Experiment [9] deals with affinity-purified antibody (a). In words: antibody (a)-immobilized plate; POD-labeled peptide (a) 0.25 µg/mL; unlabeled partial peptide (a) 0 ng/mL.
For experiment [10], the target named is affinity-purified antibody (a). As to the kind of experiment: antibody (a)-immobilized plate; POD-labeled peptide (a) 0.025 µg/mL; competitor unlabeled partial peptide (a) 50 ng/mL.
Experiment [11] deals with affinity-purified antibody (a). As to the kind of experiment: difference of absorbance between 0 and 50 ng/mL unlabeled partial peptide (a); antibody (a)-immobilized plate; POD-labeled peptide (a) 0.15 µg/mL.
The target in experiment [12] is affinity-purified antibody (a). In words: antibody (a)-immobilized plate; POD-labeled peptide (a) 0.20 µg/mL; competitor unlabeled partial peptide (a) 50 ng/mL.
For experiment [13], the target named is affinity-purified antibody (a). As to the kind of experiment: difference of absorbance between 0 and 50 ng/mL unlabeled partial peptide (a); antibody (a)-immobilized plate; POD-labeled peptide (a) 0.10 µg/mL.
Experiment [14] concerns the target affinity-purified antibody (a). In words: antibody (a)-immobilized plate; POD-labeled peptide (a) 0.025 µg/mL; unlabeled partial peptide (a) 0 ng/mL.
Experiment [15] has as its target affinity-purified antibody (a). As to the kind of experiment: antibody (a)-immobilized plate; POD-labeled peptide (a) 0.15 µg/mL; competitor unlabeled partial peptide (a) 50 ng/mL.
In experiment [16] the target is affinity-purified antibody (a). In words: antibody (a)-immobilized plate; POD-labeled peptide (a) 0.10 µg/mL; competitor unlabeled partial peptide (a) 50 ng/mL.
Experiment [17] concerns the target affinity-purified antibody (a). In words: difference of absorbance between 0 and 50 ng/mL unlabeled partial peptide (a); antibody (a)-immobilized plate; POD-labeled peptide (a) 0.25 µg/mL.
The target in experiment [18] is affinity-purified antibody (a). As to the kind of experiment: difference of absorbance between 0 and 50 ng/mL unlabeled partial peptide (a); antibody (a)-immobilized plate; POD-labeled peptide (a) 0.05 µg/mL.
Experiment [19] deals with affinity-purified antibody (a). As to the kind of experiment: antibody (a)-immobilized plate; POD-labeled peptide (a) 0.25 µg/mL; competitor unlabeled partial peptide (a) 50 ng/mL.
Experiment [20] concerns the target affinity-purified antibody (a). In words: antibody (a)-immobilized plate; POD-labeled peptide (a) 0.15 µg/mL; unlabeled partial peptide (a) 0 ng/mL.
The target in experiment [21] is affinity-purified antibody (a). As to the kind of experiment: antibody (a)-immobilized plate; POD-labeled peptide (a) 0.05 µg/mL; competitor unlabeled partial peptide (a) 50 ng/mL.
Experiment [22] concerns the target affinity-purified antibody (a). In words: antibody (a)-immobilized plate; POD-labeled peptide (a) 0.20 µg/mL; unlabeled partial peptide (a) 0 ng/mL.
Experiment [23] addresses affinity-purified antibody (a). As to the kind of experiment: antibody (a)-immobilized plate; POD-labeled peptide (a) 0.05 µg/mL; unlabeled partial peptide (a) 0 ng/mL.
Experiment [24] deals with affinity-purified antibody (a). As to the kind of experiment: antibody (a)-immobilized plate; POD-labeled peptide (a) 0.10 µg/mL; unlabeled partial peptide (a) 0 ng/mL.
The target in experiment [25] is affinity-purified antibody (e). In words: competitive immunoassay, antibody (e)-immobilized plate; competitor POD-labeled partial peptide (e) 0.30 µg/mL; unlabeled peptide (e) 25 ng/mL.
Experiment [26] addresses affinity-purified antibody (e). In words: competitive immunoassay, antibody (e)-immobilized plate; competitor POD-labeled partial peptide (e) 0.30 µg/mL; unlabeled peptide (e) 0 ng/mL.
Experiment [27] concerns the target affinity-purified antibody (e). In words: competitive immunoassay, antibody (e)-immobilized plate; competitor POD-labeled partial peptide (e) 0.30 µg/mL; unlabeled peptide (e) 5 ng/mL.
The target in experiment [28] is affinity-purified antibody (e). In words: competitive immunoassay, antibody (e)-immobilized plate; competitor POD-labeled partial peptide (e) 0.30 µg/mL; unlabeled peptide (e) 10 ng/mL.
For experiment [29], the target named is affinity-purified antibody (e). As to the kind of experiment: competitive immunoassay, antibody (e)-immobilized plate; competitor POD-labeled partial peptide (e) 0.30 µg/mL; unlabeled peptide (e) 100 ng/mL.
The target of experiment [30] is affinity-purified antibody (e). In words: competitive immunoassay, antibody (e)-immobilized plate; competitor POD-labeled partial peptide (e) 0.30 µg/mL; unlabeled peptide (e) 50 ng/mL.
The target in experiment [31] is affinity-purified antibody (c). As to the kind of experiment: competitive immunoassay, antibody (c)-immobilized plate; competitor POD-labeled partial peptide (c) 0.35 µg/mL; unlabeled peptide (c) 25 ng/mL.
Experiment [32] addresses affinity-purified antibody (c). In words: competitive immunoassay, antibody (c)-immobilized plate; competitor POD-labeled partial peptide (c) 0.35 µg/mL; unlabeled peptide (c) 0 ng/mL.
Experiment [33] addresses affinity-purified antibody (c). As to the kind of experiment: competitive immunoassay, antibody (c)-immobilized plate; competitor POD-labeled partial peptide (c) 0.35 µg/mL; unlabeled peptide (c) 10 ng/mL.
Experiment [34] deals with affinity-purified antibody (c). In words: competitive immunoassay, antibody (c)-immobilized plate; competitor POD-labeled partial peptide (c) 0.35 µg/mL; unlabeled peptide (c) 5 ng/mL.
The target of experiment [35] is affinity-purified antibody (c). In words: competitive immunoassay, antibody (c)-immobilized plate; competitor POD-labeled partial peptide (c) 0.35 µg/mL; unlabeled peptide (c) 50 ng/mL.
In experiment [36] the target is affinity-purified antibody (c). In words: competitive immunoassay, antibody (c)-immobilized plate; competitor POD-labeled partial peptide (c) 0.35 µg/mL; unlabeled peptide (c) 100 ng/mL.

Ends that are not written are not given here.

For the molecule “recombinant protein of full-length prostasin (prepared according to the method of Chen, L-M. et al., J. Biol. Chem., Vol. 276, pp. 21434-21442, 2001) (from UniProt Q16651 33-322) (enzyme)”, the absorbance (Abs) in [1] stood at 1.21 Abs; in experiment [2], 1.22 Abs; in [3], 1.19 Abs; in [4], 1.18 Abs; in experiment [5], 1.09 Abs; in [6], 1.12 Abs.

B1: POD-labeled partial peptide (a) (peptide)
peptide: AHQLDSYSEDAKVSTLKDI
modifications: also: peroxidase (POD) label, attachment site not given here
Take B1: the ΔOD [absorbance (Abs)] in experiment [7] turned out to be 0.187 Abs; in [8], 0.901 Abs; in experiment [11], 0.79 Abs; in experiment [13], 0.596 Abs; in [17], 0.925 Abs; in experiment [18], 0.338 Abs. The absorbance (Abs) amounted to 2.91 Abs in experiment [9]; 0.231 Abs in [10]; 1.5 Abs in experiment [12]; 0.418 Abs in experiment [14]; 1.25 Abs in [15]; 0.809 Abs in experiment [16]. In addition, the absorbance (Abs) in experiment [19] worked out at 1.99 Abs; in [20], 2.04 Abs; in [21] it was 0.477 Abs; in experiment [22], 2.4 Abs; in [23], 0.815 Abs; in experiment [24], 1.41 Abs.

B2: partial peptide (e) of prostasin (peptide)
peptide: PQTQESQPDSN
For the molecule B2, the absorbance (Abs) in [25] is 1.55 Abs; in experiment [26], 1.97 Abs; in [27] it was 1.96 Abs; in experiment [28], 1.62 Abs; in experiment [29], 1.49 Abs; in [30] it was 1.41 Abs.

B3: partial peptide (c) of prostasin (peptide)
peptide: NCLYNIDAKPEEPHFVQED
For the molecule B3, the absorbance (Abs) stood at 1.12 Abs in experiment [31]; 1.09 Abs in [32]; 1.11 Abs in [33]; 1.08 Abs in [34]; 0.938 Abs in experiment [35]; 0.943 Abs in experiment [36].

Source of the values: patent publication US20090170126A1.
